Molecular target: Importin-α1 (UniProt P52292)
Assay: proximity ligation assay
Conditions: PLC3 cells electroporated with HEV-p6 RNA, 18 h.p.e; 12 fields of cells, mean ± S.D.; parent: est. 5.3; read off a plot

Substance | response [spot/cell]
HEV ORF2 capsid protein, wild type (genotype 3 Kernow C-1 p6 strain) P25R; S26R; G27R | 4.8
HEV ORF2 capsid protein, wild type (genotype 3 Kernow C-1 p6 strain) R28A; R29A; R30A; R32A; R33A | 1.1

From publication PMC9451086
